Test [1] deals with T1, human 4-1BB on Jurkat-hu4-1BB-NFκB-luc2 reporter cells (human, UniProt Q07011 24-255). In words: cell-based or functional assay.
For test [2], the target named is T1, human 4-1BB on Jurkat-hu4-1BB-NFκB-luc2 …. In words: cell-based or functional assay. The source holds these as a separate data set.
A further test addresses T2, recombinant human FAP (human, UniProt Q12884 26-760).
T2 construct: exact construct not described; also called FAP ECD; not shown: The histidine tag (and any linker to it) implied by capture on an anti-histidine antibody
Briefly: SPR, huFAP captured (anti-His), Ab analyte. On the procedure: Around 12000 resonance units (RU) of the capturing system (15 μg/ml anti-histidine antibody; Order Code: 28995056; GE Healthcare Bio-Sciences AB, Sweden) were coupled on a CMS chip (GE Healthcare BR-1005-30) at pH 4.5 by using an amine coupling kit supplied by the GE Healthcare. Running buffer for Immobilization was HBS-N pH 7.4 (10 mM HEPES, 150 mM NaCl, pH 7.4, GE Healthcare). For the following kinetic characterization running buffer was PBS-P pH 7.4 (20 mM phosphate buffer, 2.7 mM KCl, 137 mM NaCl, 0.05% surfactant P20). The flow cell was set to 25° C.—and the sample block set to 12° C.—and primed with running buffer twice. […] The dissociation phase was monitored for up to 720 s and triggered by switching from the sample solution to running buffer. The surface was regenerated by washing with 10 mM Glycine pH 1.5 for 60 s at a flow rate of 30 μl/min. Bulk refractive index differences were corrected by subtracting the response obtained from an anti-histidine surface. Blank injections are also subtracted (=double referencing). For calculation of KD and kinetic parameters the Langmuir 1:1 model was used.
On the technique in general: In SPR one partner is held on a chip, and binding of the other changes the refractive index at the surface.

Test [3] addresses T3, recombinant human CD40_ECD (human, UniProt P25942 21-193).
T3 construct: also called human CD40 extra cellular domain
In words: SPR Biacore T200, huCD40 ECD analyte, apparent KD. The protocol:
The capacity of the bispecific constructs to bind human CD40 was assessed by surface plasmon resonance (SPR). […] Bulk refractive index differences were corrected by subtracting the response obtained from a goat anti human F(ab′)2 surface. Blank injections are also subtracted (=double referencing). For calculation of apparent KD and other kinetic parameters the Langmuir 1:1 model was used. The apparent Kd was calculated using the Biacore™ B4000 evaluation software (version 1.1).

For orientation: koff means the first-order rate constant of dissociation. The kon is the rate constant with which the complex forms.

T1 sequence (Q07011 24-255 limits assumed): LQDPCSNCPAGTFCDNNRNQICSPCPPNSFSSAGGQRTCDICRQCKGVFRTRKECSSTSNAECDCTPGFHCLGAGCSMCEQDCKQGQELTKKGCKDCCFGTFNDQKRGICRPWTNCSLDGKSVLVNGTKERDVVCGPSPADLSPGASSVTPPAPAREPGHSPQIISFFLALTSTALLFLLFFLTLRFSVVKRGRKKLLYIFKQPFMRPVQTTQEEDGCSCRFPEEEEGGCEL

B1: anti-4-1BB (20H4.9) huIgG1 P329GLALA antibody (antibody, V domains shown)
VH: QVQLQQWGAGLLKPSETLSLTCAVYGGSFSGYYWSWIRQSPEKGLEWIGEINHGGYVTYNPSLESRVTISVDTSKNQFSLKLSSVTAADTAVYYCARDYGPGNYDWYFDLWGRGTLVTVSS
VL: EIVLTQSPATLSLSPGERATLSCRASQSVSSYLAWYQQKPGQAPRLLIYDASNRATGIPARFSGSGSGTDFTLTISSLEPEDFAVYYCQQRSNWPPALTFGGGTKVEIK
For B1, in test [1], the “EC50 of NFκB-luciferase activation in Jurkat-hu4-1BB-NFκB-luc2 cells with NIH/3T3-huFAP clone 19” value is 0.321 nM. In addition, the “area under the curve (AUC) of NFκB-luciferase activation in Jurkat-hu4-1BB-NFκB-luc2 cells with NIH/3T3-huFAP clone 19” value in test [2] is 15500.

B2: anti-4-1BB (20H4.9) huIgG4 (antibody, V domains shown)
VH: B1 VH
VL: B1 VL
For B2, the “EC50 of NFκB-luciferase activation in Jurkat-hu4-1BB-NFκB-luc2 cells with NIH/3T3-huFAP clone 19” value in test [1] was 0.701 nM. For the same molecule, the “area under the curve (AUC) of NFκB-luciferase activation in Jurkat-hu4-1BB-NFκB-luc2 cells with NIH/3T3-huFAP clone 19” value in test [2] stood at 13000.

B3: FAP (4B9)-CD40 Contorsbody P1AE2052 (bispecific antibody, IgG1)
chain 1: not shown
chain 2: DIQMTQSPSSLSASVGDRVTITCRSSQSLVHSNGNTFLHWYQQKPGKAPKLLIYTVSNRFSGVPSRFSGSGSGTDFTLTISSLQPEDFATYFCSQTTHVPWTFGGGTKVEIKRTVAAPSVFIFPPSDEQLKSGTASVVCLLNNFYPREAKVQWKVDNALQSGNSQESVTEQDSKDSTYSLSSTLTLSKADYEKHKVYACEVTHQGLSSPVTKSFNRGECGGGGSGGGGSDKTHTCPPCPAPEAAGGPSVFLFPPKPKDTLMISRTPEVTCVVVDVSHEDPEVKFNWYVDGVEVHNAKTKPREEQYNSTYRVVSVLTVLHQDWLNGKEYKCKVSNKALGAPIEKTISKAKGQPREPQVCTLPPSRDELTKNQVSLSCAVKGFYPSDIAVEWESNGQPENNYKTTPPVLDSDGSFFLVSKLTVDKSRWQQGNVFSCSVMHEALHNHYTQKSLSLSPGKGGGGSGGGGSEVQLLESGGGLVQPGGSLRLSCAASGYSFTGYYIHWVRQAPGKGLEWVGRVIPNAGGTSYNQKFKGRFTISVDNSKNTAYLQMNSLRAEDTAVYYCAREGIYWWGQGTTVTVSSASTKGPSVFPLAPSSKSTSGGTAALGCLVKDYFPEPVTVSWNSGALTSGVHTFPAVLQSSGLYSLSSVVTVPSSSLGTQTYICNVNHKPSNTKVDKKVEPKSCGGGGSGGGGSGGGSGGGGSEIVLTQSPGTLSLSPGERATLSCRASQSVTSSYLAWYQQKPGQAPRLLINVGSRRATGIPDRFSGSGSGTDFTLTISRLEPEDFAVYYCQQGIMLPPTFGQGTKVEIKSSASTKGPSVFPLAPSSKSTSGGTAALGCLVKDYFPEPVTVSWNSGALTSGVHTFPAVLQSSGLYSLSSVVTVPSSSLGTQTYICNVNHKPSNTKVDKKVEPKSC
notes: 2+1 contorsbody; IgG1 Fc knob/hole, P329G LALA
As for B3, in the test with recombinant human FAP, the Kd is 8.31 nM, the koff amounted to 0.000296 s⁻¹, the kon amounted to 35600 M⁻¹ s⁻¹ and the “t 1/2” value worked out at 39.1 min. Besides, in test [3], the Kd came to 7.2 nM, the koff was 0.00681 s⁻¹, the kon was 945000 M⁻¹ s⁻¹ and the “t 1/2” value came out at 1.7 min.

Source of the values: US20210324108A1 (Hoffmann-La Roche, published 2021).
